The target of the assay is cotinine-conjugated anti-HER2 affibody (ZQAA1-Cot). The experiment in a line: ELISA, ZQAA1-Cot (2 ug/mL) captured on coated hHER2-ECD-His, anti-hIgG-Fc-HRP, absorbance at 450 nm. A general note: In an ELISA, binding on a coated surface is turned into a signal by an enzyme label.

B1: humanized antibody (hz33B2) specifically binding to cotinine (antibody, V domains shown)
VH: QVQLVQSGAEVKKPGASVKVSCKASGYTFTSYWIQWVRQAPGQGLEWMGEIFPGTGTTYYNEKFKGRVTMTIDTSTSTVYMELSSLRSEDTAVYYCARGGYYYDSRAWFAYWGQGTLVTVSS
VL: QAVVTQEPSLTVSPGGTVTLTCRSSTGTVTTSNYANWVQQKPGQAPRGLIGGTNNRAPWTPARFSGSLLGDKAALTLSGAQPEDEAEYYCALWFSNHWVFGGGTKLTVLG
In general, EC50 (read off the curve) refers to the concentration at which the effect is half-maximal. A lower EC50 (read off the curve) goes with higher potency in that assay. The molecule B1 showed an EC50 (read off the curve) of 0.06 mg/L.

For the origin of these results see patent US20250188195A1.
